From PMC8782670, “Production and Characterization of RNA Aptamers Specific for Amyloid Fibril Epitopes” come the findings set out here.

The series addresses beta2-microglobulin, monomer at pH 3.6 (biotinylated, partially folded) (human, UniProt P61769 21-119). The experiment in a line: SPR; pH 3.6, 250 mM NaCl; apparent, 1:1 fit; SPR: Buffer A pH 3.6, 250 mM NaCl, 25 C, 0.5 uM RNA; dot blot: Buffer A pH 7.0, 1 M NaCl, 10 ug/ml BSA and yeast tRNA, 21 C (Buffer A composition not given). To be noted: protein: recombinant; tags: biotin; interrupted stem-loop (Mfold). A general note: SPR reads the build-up and loss of mass on a sensor chip optically.

Chain of beta2-microglobulin, monomer at pH 3.6 (biotinylated, partially folded) (P61769 21-119): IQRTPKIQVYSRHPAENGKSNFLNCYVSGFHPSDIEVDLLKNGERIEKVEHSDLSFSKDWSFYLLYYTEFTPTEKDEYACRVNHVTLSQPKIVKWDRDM

B1: M-2 (structured_RNA)
RNA: GGGCCAAGCUUGCAUGCCUGCAGUUGGUUACGCGUACAGUGAAACUCGGAAAGUUGAAGGGCCAAAUGGGAACGGUACCGAGCUCAGGUUCCC
With B1, the Kd is approximately 10 nM.
